Data set [1] in a line: Effect of pH on MjTET activity. It counts as biochemical. The settings on record: pH 6 and 10.5; Leu-pNA, 75° C. How it is done: The effect of pH on MjTET activity was determined in pH range varying from 6 to 11. The buffers used were: PIPES, pH 6-7.5; CHES, pH 8.2-10 and CAPS, pH 10.5-11. All buffers were used at 50 mM concentration in presence of 150 mM KCl, 0.1 mM CoCl2, 4 μg/mL of MjTET and 5 mM Leu-pNA as substrate. The given pH values are at 75° C. Incubation was done at 75° C. for 5 min and the quantity of produced pNA was evaluated by measuring the absorbance at 405 nm.

Data set [2] is described as follows: Effect of temperature on MjTET activity. The conditions noted are these: Leu-pNA. It counts as biochemical. Here is the method: Different temperatures ranging from 20 to 90° C. were tested on MjTET activity. Incubation was done in 50 mM CHES, 150 mM KCl, 0.1 mM CoCl2, pH 8.5 in presence of 4 μg/mL of protein and 5 mM Leu-pNA for 5 min. Absorbance of released pNA was measured at 405 nm.

Data set [3] is described as follows: Effect of temperature on MjTET stability (remaining aminopeptidase activity after incubation at 85° C.). Type of data set: physicochemical. The settings on record: incubated at 85° C.; remaining activity on Leu-pNA. How it is done:
The effect of temperature on MjTET stability was assayed by incubating the enzyme (160 μg/ml) at 85° C. Aliquot of 10 μl was taken at different time intervals, and the remaining aminopeptidase activity was assayed against 5 mM Leu-pNA in 390 μl of 50 mM CHES, 150 mM KCl, 0.1 mM CoCl2, pH 8.5 incubated at 85° C. for 5 min. Enzymatic stability of MjTET was evaluated by measuring the quantity of produced pNA at 405 nm.

Data set [4] in a line: Hydrolytic activity on synthetic chromogenic and fluorogenic monoacyl compounds. Type of data set: biochemical. The settings on record: for cleavage of tryptophan from substrate Nt end: FIG. 4; for amidolytic activity against aromatic amino acids: phenylalanine and tyrosine, MjTET compared with PhTET2 (FIG. 4). Here is the method:
The hydrolytic activity of MjTET on synthetic chromogenic and fluorogenic compounds was determined by using different aminoacyl-pNAs and aminoacyl-AMCs through the following procedure. Reactions were initiated by addition of 4 μg/mL of enzyme to a pre-warmed mixture containing 5 mM of the chromogenic or fluorogenic compound in 50 mM CHES, 150 mM KCl and 0.1 mM CoCl2, pH 8.2, in a total volume of 400 μl. Incubation was performed at 75° C. for 5 min. The quantity of liberated pNA was evaluated by measuring the absorbance at λ=405 nm in a JASCO V-630 spectrophotometer, and for AMC by measuring the fluorescence using excitation and emission wavelengths of 360 and 440 nm, respectively in a JASCO FP-8500 spectrofluorometer. Three replicates and two enzyme blanks were assayed for each experimental point. Additional enzymatic studies were performed in order to investigate MjTET capacities to hydrolyze longer substrates (H-Trp-Phe-Tyr-Ser(PO3H2)-Pro-Arg-pNA (SEQ ID NO: 3), H-Met-Trp-Ala-Glu-Asn-Lys (SEQ ID NO:4), H-Tyr-Asp-Thr-Ser-Ile-Val-Gln-Arg (SEQ ID NO:5), H-Asp-Ala-Tyr-Pro-Ser (SEQ ID NO: 6) and H-Glu-Gly-Ile. 2 μg/ml (final concentration) of MjTET were added to a pre-warmed mixture of 0.75 mM peptide, 50 mM CHES, 150 mM KCl, 0.1 mM CoCl2, pH 8.5. To avoid water evaporation, 20 μl of mineral oil were added on the top of the total volume. The reaction incubation was done at 85° C. during 6 min. Aliquot of 80 μl was then removed and added to 220 μl of 2% acetonitrile (ACN), 0.1% trifluoroacetic acid (TFA). Proteins were removed by centrifugation at 13,000 rpm during 15 min. 100 μl of the supernatant were retrieved and injected on Nova-Pak C18 column, (4 μm, 3.9×300 mm, (Waters)) in a HPLC purifier system (PerkinElmer), equilibrated with 2% ACN, 0.1% TFA. […] Chromatographic runs were carried out at room temperature.

Data set [5] has as its system H-Trp-Phe-Tyr-Ser(PO3H2)-Pro-Arg-pNA. The data set can be described thus: Hydrolysis of longer peptide substrates followed by reverse phase HPLC. Type of data set: biochemical. The conditions noted are these: after 5 minutes, 85° C. How it is done: The hydrolytic activity of MjTET on synthetic chromogenic and fluorogenic compounds was determined by using different aminoacyl-pNAs and aminoacyl-AMCs through the following procedure. Reactions were initiated by addition of 4 μg/mL of enzyme to a pre-warmed mixture containing 5 mM of the chromogenic or fluorogenic compound in 50 mM CHES, 150 mM KCl and 0.1 mM CoCl2, pH 8.2, in a total volume of 400 μl. Incubation was performed at 75° C. for 5 min. The quantity of liberated pNA was evaluated by measuring the absorbance at λ=405 nm in a JASCO V-630 spectrophotometer, and for AMC by measuring the fluorescence using excitation and emission wavelengths of 360 and 440 nm, respectively in a JASCO FP-8500 spectrofluorometer. Three replicates and two enzyme blanks were assayed for each experimental point. Additional enzymatic studies were performed in order to investigate MjTET capacities to hydrolyze longer substrates (H-Trp-Phe-Tyr-Ser(PO3H2)-Pro-Arg-pNA (SEQ ID NO: 3), H-Met-Trp-Ala-Glu-Asn-Lys (SEQ ID NO:4), H-Tyr-Asp-Thr-Ser-Ile-Val-Gln-Arg (SEQ ID NO:5), H-Asp-Ala-Tyr-Pro-Ser (SEQ ID NO: 6) and H-Glu-Gly-Ile. 2 μg/ml (final concentration) of MjTET were added to a pre-warmed mixture of 0.75 mM peptide, 50 mM CHES, 150 mM KCl, 0.1 mM CoCl2, pH 8.5. To avoid water evaporation, 20 μl of mineral oil were added on the top of the total volume. […]

Data set [6] deals with peptide YFLMNENRYTSWNSE (SEQ ID NO: 2). In words: Time necessary to hydrolyse 50% of a 15 amino acid peptide at different temperatures. Type of data set: biochemical. How it is done:
In order to evaluate the effect of the temperature on the activity of MjTET, the inventors evaluated the relative amount of intact peptides further to an incubation with the TET protein at different temperatures.
The inventors have measured the relative amount of intact peptide further to an incubation with MjTET.
MjTET activity was measured on the following peptide: YFLMNENRYTSWNSE (SEQ ID NO: 2). The inventors evaluated the time necessary to hydrolyse 50% of the peptide at different tempertaures

The values below come from patent US20210002623A1, “AMINOPEPTIDASE AND ITS USES” (Centre national de la recherche scientifique, priority 2017, published 2021).

B1: MjTET: TET aminopeptidase (M42 family, dodecameric) from Methanocaldococcus jannaschii comprising SEQ ID NO: 1 (protein, listed as Methanococcus jannaschii)
chain: MSVVEYLKKLSKLHGISGREDSVREFMKKELEKYCDSVEIDNFGNLIAKRGNKGKKIMIAAHMDEIGLMVKYIDDNGFLKFTKIGGIYDPTILNQKVVVHGSKGDLIGVLGSKPPHRMKEEEKTKIIKYEDMFIDIGAESREEAIEMGVNIGTWVSFLSEVYDLGKNRLTGKAFDDRVGCAVLLEVMKRLSEEDIDCQVYAVGTVQEEVGLKGARVSAFKINPDVAIALDVTIAGDHPGIKKEDAPVDLGKGPVVGIVDASGRGLIAHPKVLDMIKAVSEKYKIDVQWEVGEGGTTDATAIHLTREGIPTGVISVPARYIHTPVEVIDKRDLEKTVELVYNCIKEVNNFF
B1: the “percentage of LAP activity maintained” value in data set [1] is reported as “more than 50%”. For the same molecule, the “temperature of maximal LAP activity” value in data set [2] (pH 8.5, 0.1 mM CoCl2, 20 to 90° C. tested) was 85 °C. Further, the “LAP activity in mesophilic conditions” value in data set [2] (under 50° C.) is reported as “No activity was detected”. Further, the half-life entry in data set [3] is reported as “eight”. Further, the “cleavage of tryptophan from substrate Nt end” value in data set [4] is listed as “unable to cleave”. Also, the amidolytic activity entry in data set [4] (against Leu-pNA, 75° C., pH 8.2) is “optimal amidolytic activity”; in data set [4] (against hydrophobic residues such as phenylalanine, methionine and tyrosine), “significant amidolytic activities”; in data set [4] (aspartate, glutamate, cysteine and proline monoacyl substrates), “no activity was detected”; in data set [4] (blocked residues and D-stereo configuration: Ac-Leu-pNA and D-Leu-pNA), “no activity was detected”; in data set [4] (polar and positively charged residues) it was “Reduced activities”. Also, the “amidolytic activity against aromatic amino acids” value in data set [4] is “more efficient”. For the same molecule, the “hydrolysis of the original peptide substrate” value in data set [5] was “almost hydrolyzed”. The “Time necessary to hydrolyse 50% of the peptide” value in data set [6] (20 ° C.) was 75 h; in data set [6] (30 ° C.), 55 h; in data set [6] (40 ° C.) it was 3,9 h; in data set [6] (50 ° C.), 1.3 h; in data set [6] (60 ° C.) it was 1 h; in data set [6] (70 ° C.) it was 0.6 h. Besides, the “Time necessary to hydrolyse 50% of the peptide” value in data set [6] (80 ° C.) stood at 0.25 h.

B2: PhTET2: leucyl aminopeptidase TET complex of Pyrococcus horikoshii with broad activity against neutral amino acids (protein)
chain: MEVRNMVDYELLKKVVEAPGVSGYEFLGIRDVVIEEIKDYVDEVKVDKLGNVIAHKKGEGPKVMIAAHMDQIGLMVTHIEKNGFLRVAPIGGVDPKTLIAQRFKVWIDKGKFIYGVGASVPPHIQKPEDRKKAPDWDQIFIDIGAESKEEAEDMGVKIGTVITWDGRLERLGKHRFVSIAFDDRIAVYTILEVAKQLKDAKADVYFVATVQEEVGLRGARTSAFGIEPDYGFAIDVTIAADIPGTPEHKQVTHLGKGTAIKIMDRSVICHPTIVRWLEELAKKHEIPYQLEILLGGGTDAGAIHLTKAGVPTGALSVPARYIHSNTEVVDERDVDATVELMTKALENIHELKI
As to B2, in data set [4], the “hydrolytic activity toward N-terminal phenylalanine residues” value is listed as “devoid of hydrolytic activity”, the “cleavage of tryptophan from substrate Nt end” value is on record as “unable to cleave” and the “amidolytic activity against aromatic amino acids” value was “weak activity”. Also, the “Time necessary to hydrolyse 50% of the peptide” value in data set [6] (40 ° C.) is reported as 0.5 h.
